Experimental data taken from patent US12068729B2, “Anti-factor XII/XIIa antibodies and uses thereof” (Regeneron Pharmaceuticals, Inc., priority 2018, dated 2024).

T1: human FXIIa (Homo sapiens, UniProt P00748)
T1 construct: Factor XIIa, a beta-globulin plasma serine protease composed of an amino-terminal heavy chain and a carboxy-terminal light chain; purchased Enzyme Research Laboratories 1212a; host or cells: human plasma (said of the same vendor's proteins used as immunogen)
T1 sequence (P00748 20-372 limits assumed): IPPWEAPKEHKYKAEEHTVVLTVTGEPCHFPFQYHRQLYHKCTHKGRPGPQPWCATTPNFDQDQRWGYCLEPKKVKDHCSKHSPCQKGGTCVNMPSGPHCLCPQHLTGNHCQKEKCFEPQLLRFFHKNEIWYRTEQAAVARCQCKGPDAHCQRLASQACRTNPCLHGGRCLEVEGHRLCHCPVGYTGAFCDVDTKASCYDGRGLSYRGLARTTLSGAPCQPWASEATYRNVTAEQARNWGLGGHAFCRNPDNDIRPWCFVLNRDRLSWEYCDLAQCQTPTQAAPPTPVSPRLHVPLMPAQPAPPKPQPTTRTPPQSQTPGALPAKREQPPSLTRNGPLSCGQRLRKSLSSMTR
T1 sequence (P00748 373-615 limits assumed): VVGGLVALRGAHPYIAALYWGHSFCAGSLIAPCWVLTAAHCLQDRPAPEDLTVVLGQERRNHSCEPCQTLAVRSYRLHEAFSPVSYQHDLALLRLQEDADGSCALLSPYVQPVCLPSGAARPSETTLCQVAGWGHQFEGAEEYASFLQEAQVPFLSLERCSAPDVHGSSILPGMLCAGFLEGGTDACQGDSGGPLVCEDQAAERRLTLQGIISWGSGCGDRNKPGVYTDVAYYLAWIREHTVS

B1: mAb26049: fully human anti-FXII/FXIIa monoclonal antibody, HCVR/LCVR SEQ ID NOs: 34/42 (antibody, V domains shown)
VH: EVQLVESGGDLVQPGGSLRLSCAASGFTFNTYAMHWVRQAPGKGLEYISAIDTKGGSTYYADSVKGRFTISRDNSKNAQYLQMDSLRVEDMAVYYCARGFGLDVWGQGTTVTVSS
VL: DVVMTQSPLSLAVTLGQPASISCRSSQSLGYSDGNTYLNWFQQRPGQSPRRLIYKVSNRDSGVPDRFSGSGSGTDFTLKINRVETVDVGVYYCMQATHWPYTFGQGTKLEIK
B2: mAb26048: fully human anti-FXII/FXIIa monoclonal antibody, HCVR/LCVR SEQ ID NOs: 18/26 (antibody, V domains shown)
VH: EVQLVESGGGLVQPRGSLRLSCVASGFTFSDYGMSWVRQAPGKGLEWVSVIGGAGHGTYYADSVKGRFTISRDNSRNTLYLQMNSLRDEDTAVYYCAKKYYWNYVGGMDVWGRGTTVTVSS
VL: DIQMTQSPSSVSASVGDRVTITCRASQDINNWLAWYQQKPGKAPKLLISTASSLQSGVPSRFSGSGSGTDFTLTISSLQPEDFATYYCQQANSLPFTFGPGTKVDIK
B3: mAb26036: fully human anti-FXII/FXIIa monoclonal antibody, HCVR/LCVR SEQ ID NOs: 2/10 (antibody, V domains shown)
VH: QVQLVQSGAEVKKPGASVTVSCKASGYTFTSYYLHWVRQAPGQGLEWMGIINPSGGSTSYAQKFQGRVTMTRDTSTSTVYMELSSLRSEDTAVYYCARGVTTVTTYYHYYNMDVWGQGTTVTVSS
VL: DIQMTQSPSSLSASVGDRVTITCRASQGISNYLAWFQQKPGKAPKSLIYAASSLQSGVPSKFSGSGSGTDFTLTISSLQPEDFATYYCQKYNTYPLTFGGGTKVEIK

Tests used:
human FXIIa [1] = target: T1, human FXIIa; assay: Surface plasmon resonance (Biacore 4000) binding kinetics, hFXIIa
Method: Equilibrium dissociation constant (KD) for different FXII reagents binding to purified anti-FXII monoclonal antibodies were determined using a real-time surface plasmon resonance based Biacore 4000 biosensor. All binding studies were performed in 10 mM HEPES, 300 mM NaCl, and 0.05% v/v Surfactant Tween-20, pH 7.4 (HBS-P) running buffer at 25° C. and 37° C. The Biacore CM5 sensor chip surface was first derivatized by amine coupling with the mouse anti-human Fc specific monoclonal antibody (GE Healthcare Cat #BR100839) to capture anti-FXII monoclonal antibodies. Binding studies were performed on human FXII and FXIIa (Enzyme Research Laboratories, Cat #1212 and 1212a, respectively). Different concentrations of hFXII and hFXIIa (50 nM-3.125 nM; 2-fold serial dilution) were first prepared in HBS-P running buffer and were injected over anti-human Fc captured anti-FXII monoclonal antibody surface for 3 minutes at a flow rate of 30 uL/minute, while the dissociation of monoclonal antibody bound FXII reagent was monitored for 5 minutes in HBS-P running buffer. The association rate (ka) and dissociation rate (kd) were determined by fitting the real-time binding sensorgrams to a 1:1 binding model with mass transport limitation using Scrubber 2.0c curve-fitting software. Binding dissociation equilibrium constant (KD) and dissociative half-life (t½) were calculated from the kinetic rates as: […]

[2] = tested on: thrombin generated via the Intrinsic and Common pathways; assay: Thrombin Generation Assay (TGA) triggered by ellagic acid; format: biochemical, human; details: Intrinsic Pathway Activation with Ellagic Acid
Text: (§1) This Example describes the inhibitory activity of selected antibodies, as determined by four functional plasma assays: 1) Activated Partial Thromboplastin Time (aPTT), 2) Prothrombin Time (PT), 3) Thrombin Generation Assay (TGA) triggered by ellagic acid and 4) TGA triggered by Tissue Factor. The aPTT test evaluates all clotting factors of the Intrinsic and Common pathways of the coagulation cascade by measuring time for a clot to form after the addition of calcium and ellagic acid, whereas the PT test evaluates all clotting factors of the Extrinsic and Common pathways of the coagulation cascade after the addition of calcium and Tissue Factor. The TGA triggered by ellagic acid measures the rate and amount of thrombin generated via the Intrinsic and Common pathways whereas TGA triggered by Tissue Factor measures the rate and amount of thrombin generated via the Extrinsic and Common pathways.
(§2) The thrombin generation profile was determined in a Thermo Scientific Hemker Thrombinoscope in the following manner: A total of 55 ul of pooled normal human plasma was added to a well of a microplate at 37° C. Then 5 ul of a 2× serially diluted test article (antibody or small molecule inhibitor) in PBS was added to the well of the microplate and allowed to incubate for 30 min. 15 ul of APPT-XL Ellagic Acid (Thermo Scientific) was diluted in MP reagent then added to the well and allowed to incubate for 45 min. Then 15 ul of Fluo Flu Cal substrate (Diagnostica Stago) was added immediately before a continuous 90 min reading of the microplate. The measured real-time thrombin concentration values were plotted against time to yield a thrombogram profile for each concentration of the test article used.

[3] = tested on: thrombin generated via the Extrinsic and Common pathways; assay: Thrombin Generation Assay (TGA) triggered by Tissue Factor; format: biochemical, human; details: Extrinsic Pathway Activation with Tissue Factor; dash cells; dose up to 500 nM
Text: as §1
as §2, with “Tissue Factor PPP Reagent (Diagnostica Stago)” for “APPT-XL Ellagic Acid (Thermo Scientific)”, “was” for “was diluted in MP reagent then”

human FXIIa [4] = target: T1, human FXIIa; assay: Surface plasmon resonance (Biacore 4000) binding kinetics, hFXIIa; remark: listed apart in the source

Molecule	Kd (human FXIIa [1]; 25° C.) [nM]	ka (human FXIIa [1]; 25° C.) [M⁻¹ s⁻¹]	kd (human FXIIa [1]; 25° C.) [s⁻¹]	t½ (human FXIIa [1]; 25° C.) [min]	Kd (human FXIIa [1]; 37° C.) [nM]	ka (human FXIIa [1]; 37° C.) [M⁻¹ s⁻¹]	kd (human FXIIa [1]; 37° C.) [s⁻¹]	t½ (human FXIIa [1]; 37° C.) [min]	Concentration required for ↑ lag time by 2× [2] [nM]	Concentration required for ↓ endogenous thrombin potential by ½ [2] [nM]	Concentration required for ↓ thrombin peak by ½ [2] [nM]	Concentration required for ↑ lag time by 2× [3]	Concentration required for ↓ endogenous thrombin potential by ½ [3]	Concentration required for ↓ thrombin peak by ½ [3]	100 nM Ag Bound (RU) (human FXIIa [4]; 25° C.)	100 nM Ag Bound (RU) (human FXIIa [4]; 37° C.)
B1	5.07	97600	0.000495	23.4	6.31	244000	0.00154	7	200	250	250	— (no effect on thrombin generation with a dose up to 500 nM)	— (no effect on thrombin generation with a dose up to 500 nM)	— (no effect on thrombin generation with a dose up to 500 nM)	162.4	251.5
B2	2.07	208000	0.00043	26.8	1.79	439000	0.000784	15	150	250	250	— (no effect on thrombin generation with a dose up to 500 nM)	— (no effect on thrombin generation with a dose up to 500 nM)	— (no effect on thrombin generation with a dose up to 500 nM)	267.8	335.6
B3	3.78	42800	0.000162	71.4	4.74	84600	0.000401	29	175	250	250	— (no effect on thrombin generation with a dose up to 500 nM)	— (no effect on thrombin generation with a dose up to 500 nM)	— (no effect on thrombin generation with a dose up to 500 nM)	89.9	166.52
